Assay [1] concerns SD rats. The experiment in a line: Prepulse inhibition (PPI) in startle response after neonatal subcutaneous administration. Conditions: 75 db prepulse, 120 db pulse after 100 ms, 1.0 mg/kg s.c. 10 times from 2 days after birth, compared to cytochrome-C group. In kind it is in vivo, rat. From the text:
The prepulse inhibition in startle response is a test for perception-response ability using a startle response, which can be commonly evaluated in human and animals, as an index. This test is characterized in that abnormalities in attention and ability to process information in brain, which are considered to be the main disease state of schizophrenia, can be scientifically and objectively evaluated. The test itself is a measurement of decrease in a fright startle response to a big sound, which is attributable to the previous application of a weak sound stimulus (prepulse) of the level incapable of causing a fright startle response, 30-150 mSec before causing a fright startle response by making a noise of about 120 db. The decrease produced by the prepulse is called a prepulse inhibition, which is known to indicate abnormal decrease in schizophrenia patients and schizophrenia animal models (Braff D. L., Geyer M. A., Arch. Gen. Psychiatry, 47, 181-188, 1990).
As the animal, SD rats (Japan SLC) were used from 2 days after birth. As a reagent, human recombinant interleukin 1α and cytochrome-C (Sigma) were each dissolved in physiological saline at 40 μg/mL and used. […] From 21 days after birth, startle response intensity and prepulse inhibition were measured with an apparatus of measuring startle response of small animal (San Diego Instruments). […]

Assay [2] concerns SD rats. The experiment in a line: Startle response intensity to 120 db sound after neonatal subcutaneous administration. In kind it is in vivo, rat. The note with it: 1.0 mg/kg s.c. 10 times from 2 days after birth, compared to cytochrome-C administration group. How it is done:
As the animal, SD rats (Japan SLC) were used from 2 days after birth. As a reagent, human recombinant interleukin 1α and cytochrome-C (Sigma) were each dissolved in physiological saline at 40 μg/mL and used. The reagents were subcutaneously administered 10 times in total (up to 11 days after birth) into the neck at 25 μL (each 1.0 mg/kg) per 1 g of rat body weight […] from 2 days after birth. From 21 days after birth, startle response intensity and prepulse inhibition were measured with an apparatus of measuring startle response of small animal (San Diego Instruments). That is, as a sensory stimulus to induce a startle response, a sound stimulation was used, and as a prepulse stimulation, a sound pressure stimulus of 75 db was given, which was 5 db higher than the environmental noise (background noise) level. After 100 milli-seconds, a pulse stimulus of a sound pressure of 120 db was given. The ratio of decrease in the startle response when prepulse was combined to the startle response with 120 db alone was considered as the prepulse inhibition (PPI).

B1: IL-1α: human recombinant interleukin 1α, a cytokine, dissolved in physiological saline and administered to neonatal rats to induce the model (protein, UniProt P01583 113-271, looked up)
Interleukin-1 alpha: SAPFSFLSNVKYNFMRIIKYEFILNDALNQSIIRANDQYLTAAALHNLDEAVKFDMGAYKSSKDDAKITVILRISKTQLYVTAQDEDQPVLLKEMPEIPKTITGSETNLLFFWETHGTKNYFTSVAHPNLFIATKQDYWVCLAGGPPSITDFQILENQA
As to B1, the prepulse inhibition result in the assay on SD rats [1] (22 days after birth, FIG. 2B) is given as “such abnormality was not found”; with SD rats [1] (60 days after birth, p<0.05, FIG. 2A), “significant decrease”. Besides, the “intensity of startle response to the sound pressure of 120 db” value is recorded as “such abnormality was not found” in the assay on SD rats [2] (22 days after birth, FIG. 1B) and “significant increase” in the assay on SD rats [2] (60 days after birth, FIG. 1A).

(Values after patent US20040103447A1, “Schizophrenia-like mental disease model animal, method of constructing the same and use thereof” (priority 2001, published 2004).)
